Results reported in IntAct's records for PubMed 12403843.

B1: Vitamin D3 receptor (Homo sapiens), P11473 (parent)
chain: MEAMAASTSLPDPGDFDRNVPRICGVCGDRATGFHFNAMTCEGCKGFFRRSMKRKALFTCPFNGDCRITKDNRRHCQACRLKRCVDIGMMKEFILTDEEVQRKREMILKRKEEEALKDSLRPKLSEEQQRIIAILLDAHHKTYDPTYSDFCQFRPPVRVNDGGGSHPSRPNSRHTPSFSGDSSSSCSDHCITSSDMMDSSSFSNLDLSEEDSDDPSVTLELSQLSMLPHLADLVSYSIQKVIGFAKMIPGFRDLTSEDQIVLLKSSAIEVIMLRSNESFTMDDMSWTCGNQDYKYRVSDVTKAGHSLELIEPLIKFQVGLKKLNLHEEEHVLLMAICIVSPDRPGVQDAALIEAIQDRLSNTLQTYIRCRHPPPGSHLLYAKMIQKLADLRSLNEEHSKQYRCLSFQPECSMKLTPLVLEVFGNEIS

Variants of: B1
Settings: with ncoa1_human NCOA1, Q15788
Chain of ncoa1_human NCOA1, Q15788 (Q15788 whole entry): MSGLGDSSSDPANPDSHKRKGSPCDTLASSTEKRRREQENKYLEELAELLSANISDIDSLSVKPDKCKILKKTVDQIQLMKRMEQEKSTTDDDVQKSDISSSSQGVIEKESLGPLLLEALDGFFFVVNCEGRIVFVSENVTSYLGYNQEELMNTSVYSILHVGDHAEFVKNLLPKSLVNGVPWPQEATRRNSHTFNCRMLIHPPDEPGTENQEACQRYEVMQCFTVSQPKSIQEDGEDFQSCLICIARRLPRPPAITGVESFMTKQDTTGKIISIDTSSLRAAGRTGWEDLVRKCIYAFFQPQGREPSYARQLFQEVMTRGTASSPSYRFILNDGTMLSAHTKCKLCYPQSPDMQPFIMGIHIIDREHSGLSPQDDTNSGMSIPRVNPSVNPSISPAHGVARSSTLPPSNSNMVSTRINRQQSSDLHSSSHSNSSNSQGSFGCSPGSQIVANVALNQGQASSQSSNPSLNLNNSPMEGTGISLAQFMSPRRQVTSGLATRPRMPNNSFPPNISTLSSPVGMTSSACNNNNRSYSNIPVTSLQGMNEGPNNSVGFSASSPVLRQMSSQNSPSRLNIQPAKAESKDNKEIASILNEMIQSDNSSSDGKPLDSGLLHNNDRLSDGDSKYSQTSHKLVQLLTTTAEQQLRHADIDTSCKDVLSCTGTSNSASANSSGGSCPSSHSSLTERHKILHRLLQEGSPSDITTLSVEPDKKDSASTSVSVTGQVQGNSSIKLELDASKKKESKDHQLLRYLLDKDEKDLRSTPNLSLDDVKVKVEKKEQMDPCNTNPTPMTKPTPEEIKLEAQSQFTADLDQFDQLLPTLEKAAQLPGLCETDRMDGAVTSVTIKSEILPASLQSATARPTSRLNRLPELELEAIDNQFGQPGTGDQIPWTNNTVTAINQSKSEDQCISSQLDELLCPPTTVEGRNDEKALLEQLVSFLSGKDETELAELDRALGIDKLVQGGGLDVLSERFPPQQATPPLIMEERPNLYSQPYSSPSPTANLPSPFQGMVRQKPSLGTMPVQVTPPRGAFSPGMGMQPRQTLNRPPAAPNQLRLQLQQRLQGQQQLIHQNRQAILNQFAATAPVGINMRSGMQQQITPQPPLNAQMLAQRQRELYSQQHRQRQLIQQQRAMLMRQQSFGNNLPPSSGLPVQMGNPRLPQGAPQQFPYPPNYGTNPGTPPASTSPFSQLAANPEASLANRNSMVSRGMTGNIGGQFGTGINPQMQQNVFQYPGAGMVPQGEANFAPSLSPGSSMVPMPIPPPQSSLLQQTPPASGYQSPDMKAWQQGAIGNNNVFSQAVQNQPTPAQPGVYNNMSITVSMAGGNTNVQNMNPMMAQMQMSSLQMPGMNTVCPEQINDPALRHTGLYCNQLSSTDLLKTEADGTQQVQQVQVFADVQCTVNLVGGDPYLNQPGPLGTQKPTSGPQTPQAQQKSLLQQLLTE

effect of a mutation on the interaction | Variant
disrupting interaction strength | E420K

Variants of: B1
Settings: with med1_human MED1, Q15648
Chain of med1_human MED1, Q15648 (Q15648 whole entry): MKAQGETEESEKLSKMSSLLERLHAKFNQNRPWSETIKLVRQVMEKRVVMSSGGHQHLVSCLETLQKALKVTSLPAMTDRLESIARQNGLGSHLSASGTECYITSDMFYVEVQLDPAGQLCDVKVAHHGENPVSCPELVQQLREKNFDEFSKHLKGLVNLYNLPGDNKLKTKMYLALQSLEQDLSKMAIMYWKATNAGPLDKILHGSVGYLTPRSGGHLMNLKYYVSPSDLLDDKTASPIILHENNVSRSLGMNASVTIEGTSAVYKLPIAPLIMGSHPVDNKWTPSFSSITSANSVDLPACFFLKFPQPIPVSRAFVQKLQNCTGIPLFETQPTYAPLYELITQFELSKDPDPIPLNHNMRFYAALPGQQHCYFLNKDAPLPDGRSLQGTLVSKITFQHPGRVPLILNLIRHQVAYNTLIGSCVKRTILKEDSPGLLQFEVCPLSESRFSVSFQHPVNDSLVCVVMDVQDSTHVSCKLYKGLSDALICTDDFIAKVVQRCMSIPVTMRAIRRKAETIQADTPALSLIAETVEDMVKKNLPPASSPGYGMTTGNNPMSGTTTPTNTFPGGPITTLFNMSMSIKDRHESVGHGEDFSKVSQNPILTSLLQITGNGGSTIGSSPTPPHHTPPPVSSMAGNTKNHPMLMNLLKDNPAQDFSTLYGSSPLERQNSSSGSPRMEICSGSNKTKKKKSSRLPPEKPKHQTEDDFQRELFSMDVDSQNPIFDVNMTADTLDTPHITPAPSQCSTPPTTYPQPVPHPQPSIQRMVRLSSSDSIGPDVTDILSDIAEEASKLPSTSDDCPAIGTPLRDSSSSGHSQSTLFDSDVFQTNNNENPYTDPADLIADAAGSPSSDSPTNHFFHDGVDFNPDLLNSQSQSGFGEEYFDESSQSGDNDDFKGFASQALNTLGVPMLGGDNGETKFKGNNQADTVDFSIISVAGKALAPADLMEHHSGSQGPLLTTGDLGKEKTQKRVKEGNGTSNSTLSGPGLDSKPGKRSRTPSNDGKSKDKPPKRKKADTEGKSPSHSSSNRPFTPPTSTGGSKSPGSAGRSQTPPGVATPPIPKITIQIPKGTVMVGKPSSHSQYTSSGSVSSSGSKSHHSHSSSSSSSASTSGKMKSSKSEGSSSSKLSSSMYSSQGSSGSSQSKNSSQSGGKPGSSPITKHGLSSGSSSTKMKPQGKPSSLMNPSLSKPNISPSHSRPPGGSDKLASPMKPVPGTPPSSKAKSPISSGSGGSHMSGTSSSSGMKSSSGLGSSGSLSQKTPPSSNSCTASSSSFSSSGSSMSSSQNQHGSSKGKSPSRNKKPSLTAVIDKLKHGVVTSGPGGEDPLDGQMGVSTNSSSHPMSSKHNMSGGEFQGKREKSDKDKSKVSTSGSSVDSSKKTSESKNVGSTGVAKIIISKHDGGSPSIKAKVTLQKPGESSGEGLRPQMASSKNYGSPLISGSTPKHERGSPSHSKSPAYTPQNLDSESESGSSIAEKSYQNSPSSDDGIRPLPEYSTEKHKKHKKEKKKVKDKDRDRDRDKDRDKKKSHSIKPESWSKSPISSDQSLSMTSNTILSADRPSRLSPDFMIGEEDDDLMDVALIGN

effect of a mutation on the interaction | Variant
disrupting interaction strength | E420K
